This experiment addresses Δgpαf-BOF (recombinant nonglycosylated pro-α factor derivative labeled with BODIPY FL) (yeast). In words: fluorescence polarisation; BOF anisotropy; Δgpαf-BOF (0.2 μM in buffer A: 50 mM HEPES pH 7.5, 40 mM KOAc, 5 mM MgCl2) titrated at 4°C with PDI or BiP; a separate sample for each concentration. On the technique in general: Polarisation of emitted light reports the rotation of a fluorescent probe.

By Kd is commonly meant the constant that tells how readily two partners part at equilibrium. With “oxidized protein disulfide isomerase (from UniProt P07237 18-508) (enzyme)”, the Kd turned out to be 900 nM.

As for “reduced protein disulfide isomerase (from UniProt P07237 18-508) (enzyme)”, the Kd turned out to be 30 nM.
